The values that follow are results of earlier work, collected in PMC8472222.

A word on the Kd: it is a measure of binding affinity in units of concentration.

In this data set the target is Rad57 (Saccharomyces cerevisiae) (UniProt P25301).
Sequence of UniProt P25301 (P25301 whole entry): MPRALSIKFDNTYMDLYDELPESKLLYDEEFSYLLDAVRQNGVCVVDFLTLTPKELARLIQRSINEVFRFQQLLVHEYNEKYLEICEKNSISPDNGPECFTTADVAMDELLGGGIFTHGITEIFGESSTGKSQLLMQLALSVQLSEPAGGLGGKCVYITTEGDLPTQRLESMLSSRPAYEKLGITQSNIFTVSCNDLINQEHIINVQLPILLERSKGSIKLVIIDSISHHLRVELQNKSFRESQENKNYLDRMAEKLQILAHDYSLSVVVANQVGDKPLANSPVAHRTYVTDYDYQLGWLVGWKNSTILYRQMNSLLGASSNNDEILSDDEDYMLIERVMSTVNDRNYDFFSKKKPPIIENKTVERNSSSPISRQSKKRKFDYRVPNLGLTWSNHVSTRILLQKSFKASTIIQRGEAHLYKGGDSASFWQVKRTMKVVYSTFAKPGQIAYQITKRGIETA

Turning to Rad55 (from UniProt P38953), the Kd was < 0.2 nM.
